Data published in patent US20050255553A1 (LUDWIG INSTITUTE FOR CANCER RESEARCH, published 2005).

B1: MAGE-C2 nonapeptide SESIKKKVL (SEQ ID NO: 107) (peptide)
peptide: SESIKKKVL
notes: Synthetic peptide; also called MAGE.C2 antigenic peptide

Assays:
HLA-B44 (HLA-B*4403) [1] = molecular target: T1, HLA-B44 (HLA-B*4403) (human); test: lysis of peptide-pulsed BAGM-EBV cells by TIL 2.4
T1 construct: whole, on cells; MHC class I molecule on BAGM-EBV cells or transfected COS-7 cells
Description: FIG. 4 depicts the lysis of BAGM-EBV cells pulsed with the MAGE.C2.B44 peptides. […] TIL2.4 was added at a ratio of 15:1. The chromium release was measured after 4 hours. The nonapeptide (-▪-) is the antigenic sequence recognized by the TIL.
To identify the antigenic peptide, several minigenes were generated by amplifying different fragments of the MAGE-C2 cDNA by PCR. The PCR products were cloned into plasmid vector pCDNA3.1/His by TOPO T/A cloning (MAGE-C2/HLA-A2 patent and Ma W et al., Int. J. Cancer: in press, incorporated herein by reference). COS-7 cells were transfected with vectors encoding HLA-B44 and vectors encoding the different minigenes described above. TIL 2.4 were added to the transfected cells and TNF production was measured (FIG. 3X). […] Candidate peptides bearing the binding motif for HLA-B44 were then synthesized and pulsed onto BAGM-EBV cells. These pulsed cells were combined with TIL2.4 and assayed for lysis. […] The nonapeptide and the decapeptide were then synthesized and assayed individually.

HLA-B44 (HLA-B*4403) [2] = molecular target: T1, HLA-B44 (HLA-B*4403); test: concluded from lysis of peptide-pulsed BAGM-EBV cells and TNF assays with HLA-B44 transfectants; no direct binding assay

Binder	binding result (HLA-B44 (HLA-B*4403) [1])	binding result (HLA-B44 (HLA-B*4403) [2])
SESIKKKVLEF (Synthetic peptide) [MAGE-C2 11-mer peptide SESIKKKVLEF (SEQ ID NO: 106)]	binds	
B1		binds
